Data published in publication PMC5645412, “AUNIP/C1orf135 directs DNA double-strand breaks towards the homologous recombination repair pathway” (Nature Communications, 2017).
One block for each binder: values may come before it.

Columns and labels:
MBP-tagged CtIP = molecular target: T1, MBP-tagged CtIP (UniProt Q99708 1-897); experiment: pull-down; GST or GST-AUNIP (wild type or mutant) on glutathione-Sepharose incubated with MBP-CtIP in NETN buffer, 2 h at 4 °C; five washes; CtIP detected by monoclonal anti-CtIP antibody; conditions: both partners purified
T1 construct: CtIP; also called MBP-CtIP; source: E. coli BL21, purified (Amylose resin, eluted with maltose)

MBP-AUNIP = molecular target: T2, MBP-AUNIP (UniProt Q9H7T9 1-357); experiment: EMSA; 10 mM MgCl2; 20 nM biotin-DNA, 0-200 nM protein, 1x LightShift binding buffer with 10 mM MgCl2, 2.5% glycerol, 0.05% NP-40, 20 min, room temperature; 10% native PAGE; pH and salt not given; conditions: protein: recombinant, label: 5'-biotin on oligo 1
T2 sequence: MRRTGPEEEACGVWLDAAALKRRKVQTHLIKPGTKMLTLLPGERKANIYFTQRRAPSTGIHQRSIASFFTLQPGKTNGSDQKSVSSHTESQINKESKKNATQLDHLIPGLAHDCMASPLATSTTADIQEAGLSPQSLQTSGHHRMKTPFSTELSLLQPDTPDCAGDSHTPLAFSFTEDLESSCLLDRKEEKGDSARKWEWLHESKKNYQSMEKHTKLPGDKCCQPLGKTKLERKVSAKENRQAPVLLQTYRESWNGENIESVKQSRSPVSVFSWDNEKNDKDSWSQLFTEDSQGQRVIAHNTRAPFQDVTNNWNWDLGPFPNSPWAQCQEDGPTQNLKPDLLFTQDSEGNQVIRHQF

MBP-AUNIP Δ25-70 = molecular target: T3, MBP-AUNIP Δ25-70 (UniProt Q9H7T9 1-357, del25-70); experiment: EMSA; 10 mM MgCl2; up to 200 nM protein; 20 nM biotin-DNA, 0-200 nM protein, 1x LightShift binding buffer with 10 mM MgCl2, 2.5% glycerol, 0.05% NP-40, 20 min, room temperature; 10% native PAGE; pH and salt not given; conditions: protein: recombinant; label: 5'-biotin on oligo 1; fork; 31 bp duplex, two 28 nt arms (3' arm of oligo 1, 5' arm of oligo 2)
T3 sequence: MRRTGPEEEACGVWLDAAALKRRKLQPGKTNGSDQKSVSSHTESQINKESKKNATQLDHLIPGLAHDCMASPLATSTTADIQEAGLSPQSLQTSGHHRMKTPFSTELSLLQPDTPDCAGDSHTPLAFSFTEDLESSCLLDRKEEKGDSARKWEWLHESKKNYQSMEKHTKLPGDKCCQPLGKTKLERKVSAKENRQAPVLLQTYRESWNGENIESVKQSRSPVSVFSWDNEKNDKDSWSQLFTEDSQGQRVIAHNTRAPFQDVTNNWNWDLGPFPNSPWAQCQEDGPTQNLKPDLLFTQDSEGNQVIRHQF

T1 sequence (Q99708 whole entry): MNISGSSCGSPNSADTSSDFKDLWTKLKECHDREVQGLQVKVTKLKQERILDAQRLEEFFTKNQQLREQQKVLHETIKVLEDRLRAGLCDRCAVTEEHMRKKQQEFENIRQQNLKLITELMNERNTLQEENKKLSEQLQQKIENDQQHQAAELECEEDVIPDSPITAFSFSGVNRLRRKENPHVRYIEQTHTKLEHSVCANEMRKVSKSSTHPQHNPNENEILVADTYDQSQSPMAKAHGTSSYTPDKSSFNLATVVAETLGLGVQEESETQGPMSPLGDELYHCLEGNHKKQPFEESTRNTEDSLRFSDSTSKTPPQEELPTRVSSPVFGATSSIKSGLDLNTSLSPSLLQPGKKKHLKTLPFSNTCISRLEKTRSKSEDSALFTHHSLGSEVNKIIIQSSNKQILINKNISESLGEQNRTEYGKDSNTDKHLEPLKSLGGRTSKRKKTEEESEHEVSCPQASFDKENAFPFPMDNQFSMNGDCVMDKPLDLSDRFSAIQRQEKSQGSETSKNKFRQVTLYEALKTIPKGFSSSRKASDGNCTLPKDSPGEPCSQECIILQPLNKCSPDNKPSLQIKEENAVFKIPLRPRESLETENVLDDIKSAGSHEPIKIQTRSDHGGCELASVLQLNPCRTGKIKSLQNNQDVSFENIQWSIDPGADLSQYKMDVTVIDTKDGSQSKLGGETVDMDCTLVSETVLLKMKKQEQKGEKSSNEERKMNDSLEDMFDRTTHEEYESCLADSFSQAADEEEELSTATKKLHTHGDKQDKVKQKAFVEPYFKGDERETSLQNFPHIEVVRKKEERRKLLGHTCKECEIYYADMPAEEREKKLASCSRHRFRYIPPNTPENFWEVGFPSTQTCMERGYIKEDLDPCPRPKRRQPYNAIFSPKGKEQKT

- binding result (MBP-tagged CtIP): binds
B1: GST-tagged AUNIP C-terminal region (281-357) (domain or fragment, human, UniProt Q9H7T9 281-357, looked up)
chain: KDSWSQLFTEDSQGQRVIAHNTRAPFQDVTNNWNWDLGPFPNSPWAQCQEDGPTQNLKPDLLFTQDSEGNQVIRHQF
notes: source: E. coli BL21, purified on glutathione-Sepharose resin (kept on the beads)

- binding result (MBP-tagged CtIP): binds
B2: GST-tagged AUNIP (wild-type) (natural protein, human, UniProt Q9H7T9 1-357, looked up)
chain: T2 sequence
notes: AUNIP/C1orf135, human; pCold vectors may add further N-terminal vector residues; also called GST-AUNIP; recombinant GST-AUNIP; source: E. coli BL21, purified on glutathione-Sepharose resin (kept on the beads)

B3: splayed arm (dsDNA)
DNA 1: GACGCTGCCGAATTCTACCAGTGCCTTGCTAGGACATCTTTGCCCACCTGCAGGTTCAC
DNA 2: ATAGTCGGATCCTCTAGACAGCTCCATGTAGCAAGGCACTGGTAGAATTCGGCAGCGTC
- binding result (MBP-AUNIP; fork, 31 bp duplex, two 28 nt arms (3' arm of oligo 1, 5' arm of oligo 2)): binds
- binding result (MBP-AUNIP Δ25-70): no binding

B4: 5'-flap (dsDNA)
DNA 1: B3 DNA 1
DNA 2: B3 DNA 2
DNA 3: GTGAACCTGCAGGTGGGCAAAGATGTCC
- binding result (MBP-AUNIP; 1:2 31 bp, 1:3 28 bp, 28 nt 5' flap of strand 2): binds

B5: 3'-flap (dsDNA)
DNA 1: B3 DNA 1
DNA 2: B3 DNA 2
DNA 3: CATGGAGCTGTCTAGAGGATCCGACTAT
- binding result (MBP-AUNIP; 1:2 31 bp, 2:3 28 bp, 28 nt 3' flap of strand 1): binds
